PMC6673701, “Structure of Myosin VI/Tom1 complex reveals a cargo recognition mode of Myosin VI for tethering” (Nature Communications, 2019)

B1: Tom1(215–493) (domain or fragment, human, UniProt O60784-2 215-493, looked up)
chain: EQIGKLRSELEMVSGNVRVMSEMLTELVPTQAEPADLELLQELNRTCRAMQQRVLELIPQIANEQLTEELLIVNDNLNNVFLRHERFERFRTGQTTKAPSEAEPAADLIDMGPDPAATGNLSSQLAGMNLGSSSVRAGLQSLEASGRLEDEFDMFALTRGSSLADQRKEVKYEAPQATDGLAGALDARQQSTGAIPVTQACLMEDIEQWLSTDVGNDAEEPKGVTSEGKFDKFLEERAKAADRLPNLSSPSAEGPPGPPSGPAPRKKTQEKDDDMLFAL
notes: source: E. coli BL21 (DE3), purified (Ni-NTA, SEC); not shown: thioredoxin, N-terminal, cleaved; His6, N-terminal, cleaved
B2: C-terminal cargo-binding domain (CBD) of Myosin VI (residues 1157–1285) (domain or fragment, human, UniProt Q9UM54-1 1157-1285, looked up)
chain: ARQREIEMNRQQRFFRIPFIRPADQYKDPQSKKKGWWYAHFDGPWIARQMELHPDKPPILLVAGKDDMEMCELNLEETGLTRKRGAEILPRQFEEIWERCGGIQYLQNAIESRQARPTYATAMLQSLLK
notes: monomer by light scattering and ultracentrifugation; 15N-labelled in some NMR experiments; also called C-terminal CBD of Myosin VI; source: E. coli BL21 (DE3), purified (Ni-NTA, SEC); not shown: thioredoxin, N-terminal, cleaved; His6, N-terminal, cleaved

Molecular target: B2
Experiment: ITC; 25 °C, 20 mM Tris pH 7.9, 100 mM NaCl, 1 mM DTT; 50 µM protein in the cell, 500 µM in the syringe; one-site binding model
Settings: both partners purified

Kd [nM]	dH [kcal/mol]	stoichiometry N	Binder
930	-9.9 ± 0.11	1.12 ± 0.01	Tom1(392–493) (domain or fragment, human, UniProt O60784-2 392-493, looked up, 15N-labelled in one NMR titration; source: E. coli BL21 (DE3), purified (Ni-NTA, SEC); not shown: thioredoxin, N-terminal, cleaved; His6, N-terminal, cleaved) TDGLAGALDARQQSTGAIPVTQACLMEDIEQWLSTDVGNDAEEPKGVTSEGKFDKFLEERAKAADRLPNLSSPSAEGPPGPPSGPAPRKKTQEKDDDMLFAL
760	-12.7 ± 0.11	0.83 ± 0.01	Tom1(437–493) (domain or fragment, human, UniProt O60784-2 437-493, looked up, source: E. coli BL21 (DE3), purified (Ni-NTA, SEC); not shown: thioredoxin, N-terminal, cleaved; His6, N-terminal, cleaved) GVTSEGKFDKFLEERAKAADRLPNLSSPSAEGPPGPPSGPAPRKKTQEKDDDMLFAL
–	-7.61 ± 0.09	1.44 ± 0.01	B1
760	-10.6 ± 0.16	0.91 ± 0.01	Tom1(392–463) (domain or fragment, human, UniProt O60784-2 392-463, looked up, 15N-labelled in one NMR titration; source: E. coli BL21 (DE3), purified (Ni-NTA, SEC); not shown: thioredoxin, N-terminal, cleaved; His6, N-terminal, cleaved) TDGLAGALDARQQSTGAIPVTQACLMEDIEQWLSTDVGNDAEEPKGVTSEGKFDKFLEERAKAADRLPNLSS
670	-14.9 ± 0.1	0.74 ± 0.01	GVTSEGKFDKFLEERAKAADRLPNLSS (domain or fragment, human, UniProt O60784-2 437-463, looked up, monomer by light scattering and ultracentrifugation; also called Tom1 MBM; source: E. coli BL21 (DE3), purified (Ni-NTA, SEC); not shown: thioredoxin, N-terminal, cleaved; His6, N-terminal, cleaved) [Tom1(437–463), Myosin VI-binding motif]

Molecular target: B1
Experiment: as above
Settings: both partners purified

Kd [nM]	Binder
2130	B2

Molecular target: B2
Experiment: SEC + SEC-MALS + AUC; analytical gel filtration, multi-angle light scattering (20 mM Tris-HCl pH 7.9, 100 mM NaCl, 1 mM DTT) and sedimentation velocity (20 °C) of each protein alone and of the complex
Settings: both partners purified

stoichiometry N	Binder
1	GVTSEGKFDKFLEERAKAADRLPNLSS (domain or fragment, human, UniProt O60784-2 437-463, looked up, monomer by light scattering and ultracentrifugation; also called Tom1 MBM; source: E. coli BL21 (DE3), purified (Ni-NTA, SEC); not shown: thioredoxin, N-terminal, cleaved; His6, N-terminal, cleaved) [Tom1(437–463), Myosin VI-binding motif]
